Results on one molecule are retold here after patent US7205387B2, “Recombinant polypeptide useful for neurotrophin receptor mediated gene delivery and as neurotrophin agonist” (Agency for Science, Technology and Research, priority 2003, dated 2007).

In this data set the test system is plasmid DNA. Kind of data set: Atomic force microscopy of polypeptide-DNA complexes. Type of data set: physicochemical. The method, then: DNA samples, polypeptide-DNA complexes, and polypeptide-polycation-DNA complexes were prepared with a DNA concentration of 0.02 mg/ml. The samples were diluted ten-fold in HPLC-grade water, and 20 μl of each sample was deposited onto mica discs. After one minute, the mica discs were washed with HPLC-grade water and dried in a stream of filtered air. Images were acquired on a Nanoscope IIIa atomic force microscope (Digital Instruments, Santa Barbara, Calif., USA) operating in tapping mode in air, using Nanoprobe Silicon tips (Digital Instruments).

B1: SPKR4NL1-2: chimeric protein: (SPKR)4 DNA-binding domain, α-helical linker, targeting domain with loops 1 and 2 of NGF (aa 17–67), His10 tag (protein)
chain: MGHHHHHHHHHHSSGHIEGRHMSPKRSPKRSPKRSPKRGGTYLSEDELKAAEAAFKRHNPTGSCSVSVWVGDKTTATDIKGKEVMVLGEVNINNSVFKQYFFETKCRDPNPVDSG
modifications: SPKR4NL1-2
Turning to B1, the “DNA condensation seen by atomic force microscopy, with PEI600” value (PEI600 (N/P ratio of 5) added) is reported as “compact nanoparticles are formed”. Besides, the “DNA condensation seen by atomic force microscopy, peptide alone” value (peptide and plasmid DNA without polycation) was “only partially condenses plasmid DNA”.
